Source: patent US11466067B2 (priority 2019, dated 2022)

Key:
[1] = Single oral capsule dose in NHP: plasma total IL-10; assay type: in vivo, Macaca fascicularis
Source text: IL-10 delivery constructs (SEQ ID NO: 5) and caffeine were filled by weight into size-1 Capsugel V-Cap Hydroxypropyl Methylcellulose (HPMC) capsules, for oral administration. The capsules were then successively coated in a pan spray coater with three layers of polymers. The first and third layer were thin coatings of HPMC, the first to seal the crease where the capsule shells come together, and the third to minimize sticking of the capsules to each other. The second coating layer was comprised of a 50:50 mixture of Eudragit® (Evonik Industries AG) enteric acrylic polymers FS 30 D and L 30 D-55, designed to dissolve and allow the capsule to open at pH 6.5.
The MSD Small Spot IL-10 plate was washed 3 times with PBST before use. Standards were prepared in Diluent 2 (MSD Cat No R51BB), and samples diluted 2-fold in Diluent 2. Standards and diluted samples were added to the assay plate and the plate incubated for 2 hours at room temperature with shaking. The plate was washed 3 times with PBST and 1×SULFO TAG anti-huIL-10. Antibody was added to the plate before incubation for 1 hour at room temperature with shaking. Following a wash step, 2×MSD Read buffer was added to the wells of the plate and the plate is read in the MSD Sector Imager 600 plate reader. The lower limit of detection of each analyte is defined as 2.5 standard deviation above background.
Plasma samples were analyzed for Total IL-10, IL-1Ra, caffeine content and a panel of proinflammatory cytokines. Assay LLOQs were: total IL-10=0.3 pg/mL; IL-1Ra=78 pg/mL; and caffeine=[…]. Plasma concentration of IL-10 can refer to the concentration in plasma of both naturally occurring IL-10 and IL-10 appended to a carrier (for example, IL-10 in an IL-10 delivery construct described herein).
IL-10 delivery construct dosing at multiple fixed doses in non-naïve adult male Macaca fascicularis was conducted by Valley Biosystems (West Sacramento, Calif.). […] Dosing groups are described in TABLE 45.
Animals were fasted until after the 3 hour blood sample collection, when food was given. For dosing, the animals were manually restrained and a bite block placed between the jaws. A pill gun containing the dosing capsule was inserted into the back of the oral cavity and the capsule released. Up to 4 capsules were administered consecutively and a small amount of water given to induce swallowing. Once the administration of the dose was confirmed, the bite block was removed and the head released.
Blood samples were collected in K2EDTA tubes from each animal pre-dose and at 0.5, 1, 2, 3, 4, 5, 6, 7, 8, and 24 hours post-dose. Animals were returned to home cages following the 2-hour sample collection. Following physical restraint, blood samples were collected via direct venous puncture using a cephalic, femoral or saphenous vein, which were processed to plasma and stored frozen at −60° C. until shipment.

[2] = Intraluminal injection in T-cell transfer colitis model, rhIL-10 ELISA; assay type: in vivo, BALB/c and SCID mice
Protocol: This study was conducted to examine the potential for the carrier protein to transport rhIL-10 from the intestinal lumen into the submucosal region in inflamed intestinal tissue. The T lymphocyte (T cell) transfer model was used as it is a well-established model of induced chronic colitis in mice and presents many of the essential immunological hallmarks observed in IBD patients. Nine BALB/c mice and twelve SCID mice, including nine with the colitis-like model of inflammation, were dosed with 20 μl of test article via intraluminal injection into the distal ileum and the proximal, middle and distal colon.
PBS vehicle was administered to healthy BALB/c mice and both healthy and induced colitis SCID mice (n=3/group). In each group, two mice were terminated 10 minutes after intraluminal injections, and one was terminated 40 minutes after intraluminal injections. Intestinal tissue and serum were collected. Collected tissue was fixed, embedded, sectioned and H&E stained for histological assessment of inflammatory status. ELISA analysis to measure rhIL 10 was performed on lysates prepared from intestinal tissue and serum (FIGS. 106A-106D).

[3] = tested on: cells of the Lamina propria; assay: Cell targeting in the Lamina propria after intraluminal injection (immunofluorescence); assay type: in vivo, Wistar rats
Protocol: Rats were anesthetized using inhaled isoflurane and euthanized by inhaled CO2.
Experiments were initiated by making an approximately 4 cm abdominal incision to access the mid-jejunum region of the small intestine. After performing the incision, 50 μl of a prepared solution of the IL-10 delivery construct (typically at about 1 mg/mL) was injected into the intestinal lumen of an area devoid of foodstuffs through a 27-gauge needle using a 1 mL syringe. The mesentery adjacent to the site of injection was labeled with a marker and the intestine was returned to the abdominal cavity, with the incision being closed with clamps.
At specific times, the injected intestine was retrieved, surgically isolated and flushed with a 4° C. isotonic PBS. Washed, excised samples were fixed (4% paraformaldehyde in PBS) overnight at 4° C. before dehydration through graded series of ethanol/water solutions and overnight incubation in chloroform.
Dehydrated tissues were immersed in wax, sectioned, and mounted on poylysine slides and processed for antigen retrieval using sodium citrate. Afterward, sections were permeabilised with 0.2% Triton-X100 in PBS prior to thrice washing in PBS and blocking with 2% BSA+2% serum of the animal the secondary antibodies have been raised. Primary antibodies were diluted in 1% BSA, 0.1% Triton-X100 in PBS and incubated overnight at 4° C. in humidified air. Fluorescent secondary antibodies were diluted in 1% BSA, 0.1% Triton-X100 in PBS and incubated for 2 h at RT prior to processing for confocal microscopy. On occasion, an approximately 1 cm section of intestine at the injection site was collected for biochemical studies.
Proteins for specific cell types were examined by immuno-fluorescence using confocal microscopy. The IL-10 delivery construct components (the carrier, also referred to herein as “cholix,” and IL-10) were followed separately with either a polyclonal antibody (pAb) or monoclonal antibody (mAb) to IL-10 or a pAb or mAb to the carrier domain to allow co-localization with pAb or mAbs available (TABLE 46).

[4] = Pan-colonic administration via sigmoidoscopy in NHP: plasma PK/PD; assay type: in vivo, cynomolgus monkeys
Protocol: IL-10 delivery construct solution (at concentrations of 0.1, 0.3 and 1.0 mg/mL for the low, mid and high-dose groups respectively) was administered via the rectal route using sigmoidoscopy and a syringe connected to a spray nozzle with a 360° spray pattern. Serial biopsy samples were collected by sigmoidoscopy (pre-dose, 0.25, 0.5, 0.75, 8 and 24-28 hours post dose). Serial plasma samples from 0 min pre-dose to between 24-28 hours post-dose were collected for analysis for the IL-10 delivery construct.

IL-1Ra = assay type: in vivo, mice; details: 9 mg/kg

B1: IL-10 delivery construct: recombinant homodimeric fusion protein: N-terminal methionine, cholix386 domain, polyGlySer spacer, recombinant human IL-10 (protein)
chain: MVEEALNIFDECRSPCSLTPEPGKPIQSKLSIPSDVVLDEGVLYYSMTINDEQNDIKDEDKGESIITIGEFATVRATRHYVNQDAPFGVIHLDITTENGTKTYSYNRKEGEFAINWLVPIGEDSPASIKISVDELDQQRNIIEVPKLYSIDLDNQTLEQWKTQGNVSFSVTRPEHNIAISWPSVSYKAAQKEGSRHKRWAHWHTGLALCWLVPMDAIYNYITQQNCTLGDNWFGGSYETVAGTPKVITVKQGIEQKPVEQRIHFSKGNAMSALAAHRVCGVPLETLARSRKPRDLTDDLSCAYQAQNIVSLFVATRILFSHLDSVFTLNLDEQEPEVAERLSDLRRINENNPGMVTQVLTVARQIYNDYVTHHPGLTPEQTSAGAQAGGGGSGGGGSGGGGSPGQGTQSENSCTHFPGNLPNMLRDLRDAFSRVKTFFQMKDQLDNLLLKESLLEDFKGYLGCQALSEMIQFYLEEVMPQAENQDPDIKAHVNSLGENLKTLRLRLRRCHRFLPCENKSKAVEQVKNAFNKLQEKGIYKAMSEFDIFINYIEAYMTMKIRN
modifications: homodimer
With B1 the “plasma total IL-10 Tmax” value ([1]; 1 mg) was 4 h, the “plasma total IL-10 Tmax” value ([1]; 4 mg) was 3 h and the “plasma total IL-10 Tmax” value ([1]; 20.5 mg) was 2 hours post dose. For the same molecule, the “plasma total IL-10 Tmax” value ([1]; 82 mg) was 2 hours post dose, the “plasma total IL-10 Cmax” value ([1]; 82 mg (4×20.5 mg capsules), oral) was 1.34 pg/mL and the “rhIL-10 in serum of healthy animals” value ([2]; 159 pmoles intraluminal) was “moderately high”. The “rhIL-10 in serum of inflamed animals” value ([2]; 159 pmoles intraluminal) was “minimal amounts”, the “rhIL-10 levels in inflamed tissue vs rhIL-10 alone” value ([2]; 159 pmoles, 10 minutes) was “approximately 10 fold higher” and the “rhIL-10 uptake in normal intestinal tissues vs rhIL-10 alone” value ([2]; 159 pmoles, 10 minutes) was “two- to five-fold higher”. For the same molecule, the “time by which extensive amount reached the Lamina propria” value ([3]; 1-minute pulse, intraluminal injection) was at most 15 min, the “co-localization with LAMP1-positive lysosomes in enterocytes” value ([3]; 15-minute time course) was “little or no co-localization” and the “co-localization with CD3 antigen (T lymphocytes)” value ([3]; Lamina propria) was “striking co-localizations”. For the same molecule, the “co-localization with CD19-positive cells (B-lymphocytes)” value ([3]; Lamina propria) was “failed to co-localize”, the “co-localization with CD34-positive cells (endothelia)” value ([3]; Lamina propria) was “failed to co-localize” and the “co-localization with CD11c antigen (dendritic cells)” value ([3]; Lamina propria, rat jejunum) was “did not co-localize with CD11c antigen to any striking extent”. The “plasma construct concentration relative to total IL-10” value ([4]; 3 mg and 10 mg) was 10 fold lower, the “time to detection of total IL-10 in plasma” value ([4]; 1, 3, 10 mg pan-colonic) was at most 15 min and the “systemic IL-6” value ([4]; 3 and 10 mg) was “moderately induced”. For the same molecule, the “systemic IFN-γ, IL-1β, IL-2, IL-8” value ([4]; cynomolgus monkey, in vivo) was “did not lead to an increase”, the “time of maximal plasma IL-1Ra” value ([4]; cynomolgus monkey, in vivo) was 3 to 4 h and the “IL-1Ra mRNA in near-distal colonic tissue” value (IL-1Ra) was “trend towards augmented mRNA expression of IL-1Ra”. For the same molecule, the “IL-1Ra/IL-1β ratio in colonic tissue” value (IL-1Ra) was “increase in the IL-1Ra/IL-1β ratio”.
